Ends that are not written are not given here.

Usually EC50 stands for the concentration at which the effect is half-maximal. Read a high EC50 as weaker potency.

To fix the notation:
B1: L6 (peptide)
peptide: VTVPY
modifications: triazole (positions not given here); not fully specified (bridges); also: macrocycle closed by 1,4-triazole, propargylglycine click handle, other ring residues not given here
notes: also called VTVPY
B2: L8 (peptide)
peptide: TDNFY
modifications: triazole (positions not given here); not fully specified (bridges); also: macrocycle closed by 1,4-triazole, propargylglycine click handle, other ring residues not given here
notes: also called TDNFY
B3: L1b (peptide)
peptide: HGIVG
modifications: triazole (positions not given here); not fully specified (bridges); also: 1,4-triazole macrocycle, ring places not given here, propargylglycine click handle, place not given here, biotinylated (biotin NovaTag resin), site not given here
notes: Second HPLC fraction; also called HGIVG f2
B4: L5a (peptide)
peptide: VEVYP
modifications: triazole (positions not given here); not fully specified (bridges); also: 1,4-triazole macrocycle, ring places not given here, propargylglycine click handle, place not given here, biotinylated (biotin NovaTag resin), site not given here
notes: also called VEVYP f1
B5: L1a (peptide)
peptide: HGIVG
modifications: triazole (positions not given here); not fully specified (bridges); also: 1,4-triazole macrocycle, ring places not given here, propargylglycine click handle, place not given here, biotinylated (biotin NovaTag resin), site not given here
notes: It is one of two HPLC fractions of the same mass; also called HGIVG f1
B6: L5b (peptide)
peptide: VEVYP
modifications: triazole (positions not given here); not fully specified (bridges); also: 1,4-triazole macrocycle, ring places not given here, propargylglycine click handle, place not given here, biotinylated (biotin NovaTag resin), site not given here
notes: also called VEVYP f2
B7: L3a (peptide)
peptide: GEVVP
modifications: triazole (positions not given here); not fully specified (bridges); also: 1,4-triazole macrocycle, ring places not given here, propargylglycine click handle, place not given here, biotinylated (biotin NovaTag resin), site not given here
notes: also called GEVVP f1
B8: L7a (peptide)
peptide: VQVPY
modifications: triazole (positions not given here); not fully specified (bridges); also: 1,4-triazole macrocycle, ring places not given here, propargylglycine click handle, place not given here, biotinylated (biotin NovaTag resin), site not given here
notes: also called VQVPY f1
B9: L7b (peptide)
peptide: VQVPY
modifications: triazole (positions not given here); not fully specified (bridges); also: 1,4-triazole macrocycle, ring places not given here, propargylglycine click handle, place not given here, biotinylated (biotin NovaTag resin), site not given here
notes: also called VQVPY f2
B10: L4a (peptide)
peptide: VEVPY
modifications: triazole (positions not given here); not fully specified (bridges); also: 1,4-triazole macrocycle, ring places not given here, propargylglycine click handle, place not given here, biotinylated (biotin NovaTag resin), site not given here
notes: also called VEVPY f1
B11: L4b (peptide)
peptide: VEVPY
modifications: triazole (positions not given here); not fully specified (bridges); also: 1,4-triazole macrocycle, ring places not given here, propargylglycine click handle, place not given here, biotinylated (biotin NovaTag resin), site not given here
notes: also called VEVPY f2
B12: L3b (peptide)
peptide: GEVVP
modifications: triazole (positions not given here); not fully specified (bridges); also: 1,4-triazole macrocycle, ring places not given here, propargylglycine click handle, place not given here, biotinylated (biotin NovaTag resin), site not given here
notes: also called GEVVP f2

One assay addresses T1, His6-tagged human KRas Isoform 4B (residues 1-169) (human, UniProt P01116-2 1-169).
T1 construct: Expressed in E. coli BL21(DE3), purified on Ni-NTA; also called KRas protein; WT KRas protein; not shown: His6 tag from the PQE80 vector
The assay can be described thus: B-RAP immunofluorescence, 10 µM KRas well, pixel-by-pixel along the barcode lane.
Take B1: the “Avg F635 (full centroid)” value came out at 17800, the “Avg F635 (full lane)” value was found to be 16000, the “avg F635 (left part centroid)” value is 15600 and the “avg F635 (middle part centroid)” value was determined as 19400. In addition, the “avg F635 (right part centroid)” value worked out at 18500.

The target of another assay is T1, His6-tagged human KRas Isoform 4B …. The assay can be described thus: B-RAP surface immunofluorescence assay; ligand on barcode via SAC-DNA, KRas titrated 0-400 µM. The method, then: After extraction the data is background corrected. The background signal arises from (a) non-specific binding of the primary and secondary antibodies (independent of [KRas]), but can vary across different barcode stripes), and (b) non-specific binding of KRas protein ([KRas] dependent). Background (a) was assessed by measuring the average signal in the null protein well for each stripe. Background (b) was assessed by measuring the average fluorescence for the dummy ligand (Biotin* probe) that was in each well. The background subtracted data was then graphed in Graphpad Prism 7 and fitted to a sigmoidal curve (Hill coefficient=1).
A pre-fabricated PDMS template was aligned onto the DNA barcode microchip, and the microchip was taped into a 10 cm petri dish. The wells on the platform were wet with 50 μL PBST before filling with blocking buffer and placing into a 37° C. incubator for 1 hr. Concurrently, 40 μL 1% BSA in PBS solutions containing 750 nM of a SAC-DNA conjugate and 3.75 μM of one biotinylated PCC ligand or biotin-A₂₀-Cy3 blank were prepared for each SAC-DNA conjugate. The biotinylated ligands were allowed to complex with the SAC protein for one hour before pooling the SAC-DNA-ligand solutions (final [SAC-DNA-ligand conjugates]=50 nM). The blocking buffer was aspirated and each well was loaded with the SAC-DNA-ligand conjugates cocktail for hybridization with the DNA barcode at 37° C. for one hour. The wells were washed with PBST (3×) before loading serially diluted solutions of KRas protein in protein buffer (0 to 400 μM). After shaking at RT for one hour, the wells were rinsed with PBST (5×), making sure to pipet up/down with the first addition of PB ST. A (100:1) dilution of CST rabbit anti-Ras Ab (#39655) in 1° ab buffer was added to each well before shaking at RT for one hour. After rinsing the wells with PBST (3×), the wells were loaded with a (200:1) dilution of Abcam goat anti-rabbit-Alexafluor 647 linked ab (ab150079) in 2° ab buffer before shaking at RT for one hour. A final rinse of the wells with PBST (3×) proceeded peeling off the PDMS slab from the barcode microchip and dipping the barcode into the following solutions: PBS, (1:1) PBS: MQ H₂O, MQ H₂O (2×). After being spun dry, the barcode was read on the Genepix (635 nm, PMT 600, PWR 40% (60 W); 532 nm, PMT 450, PWR 15% (23 W)).
Consider B2, for which the concentration giving a half-maximal response (EC50) was 2.8 µM.
The same measure, in the same setting: for B3 the value was 1.33 µM; for B4, 5.23 µM.
Same read-out and setting: in the case of B1 it was 18.9 µM; in that of B5, 0.97 µM.
The same measure, in the same setting: for B6 the value was 7.8 µM.

The next assay shares this target. The assay can be described thus: multi-well sandwich ELISA; ligand on Neutravidin plate, KRas 0-300 µM. The method, then: (§1) A 96-well Pierce Neutravidin Plate was washed with binding buffer (3×5 minutes at RT) before loading plate with a 1 μM solution of either blank (biotin-PEG₅-NHAc) (singly) or biotinylated PCC ligand (in triplicate). The plate incubated for two hours before washing with binding buffer (3×5 minutes). Blocking buffer was added to each well and the plate blocked for one hour before undergoing washing with binding buffer (3×5 minutes). Each well was loaded with either binding buffer or KRas solution (0→300 μM), and the plate was incubated for 30 minutes. Plate washing with binding buffer (3×5 minutes) preceded incubating the plate with a (1000:1) dilution of 1° antibody (ab) rabbit anti-Ras (CST #3965) in ab buffer for thirty minutes. The plate was washed with binding buffer (3×5 minutes), loaded with a (2000:1) dilution of 2° ab goat anti-rabbit, HRP-linked ab (CST #7074) in ab buffer, and incubated for an additional thirty minutes. The plate was rinsed with binding buffer (3×5 minutes), TBS (1×5 minutes), loaded with a (1:1) mixture of TMB Peroxidase Solution and TMB Peroxidase Solution B, and developed with occasional agitation for 8-12 minutes. After quenching the enzymatic reaction with 1M H₂SO_{4(aq)} (100 μL) the plate was read at λ=450 nm within ten minutes. The data was double background corrected using the ab only absorbance and the dummy ligand absorbance, plotted using Prism GraphPad 7 (Sigmoidal 4PL mode with the Hill coefficient set=1), and an EC₅₀ value was calculated.
(In general: ELISA stands for enzyme-linked immunosorbent assay.)
As for B7, the EC50 came out at 7.78 µM.
The same measure, in the same setting: in the case of B2 it was 25.6 µM; in that of B8, 25.8 µM; in that of B9, 44.2 µM.
On the same count and under the same terms, for B6 the value was 6.87 µM.

The target is the same in the next assay. Nature of the assay: multi-well sandwich ELISA; ligand on Neutravidin plate, KRas 0-300 µM; footnote b: poorly resolved. The method, then: as §1
On to B3, for which the EC50 came out at 0.76 µM.
Still for that read-out and setting: in the case of B4 it was 3.72 µM.
The same measure, in the same setting: for B1 the value was 159 µM.
The same measure, in the same setting: in the case of B5 it was 1.65 µM.

For the next assay the target is unchanged. The assay can be described thus: barcoded rapid assay microchip, fitted curves of FIG. 6B (Hill coefficient 1), triplicate.
In the case of B7, it took 53.3 µM to reach a half-maximal effect (EC50). This lies in the double-digit micromolar range.
Still for that read-out and setting: in the case of B2 it was 8.44 µM; in that of B3, 12.2 µM.
Still for that read-out and setting: for B10 the value was 19.6 µM; for B8, 31.5 µM.
Still for that read-out and setting: in the case of B1 it was 16 µM.
For the molecule B9, it took 30.3 µM to reach a half-maximal effect (EC50).
Still for that read-out and setting: in the case of B11 it was 32.7 µM; in that of B5, 16.2 µM; in that of B12, 19.4 µM.
